According to publication PMC7199863 (The Journal of Cell Biology, 2020):

Target: T1, FLAG-tagged fragment of CC-afadin (coiled-coil region of afadin, aa 1386-1595) (mouse)
T1 chain: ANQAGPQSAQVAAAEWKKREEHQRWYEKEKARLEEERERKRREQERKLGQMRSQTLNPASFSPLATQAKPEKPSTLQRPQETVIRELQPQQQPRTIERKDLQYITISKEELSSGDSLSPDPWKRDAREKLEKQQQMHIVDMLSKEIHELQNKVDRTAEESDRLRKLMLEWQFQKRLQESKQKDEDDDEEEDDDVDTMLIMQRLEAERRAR
Test: sucrose density gradient centrifugation

- stoichiometry N: 1
B1: αE-catenin fragment MIII-C (aa 509-906) (domain or fragment)
chain: DDFLAVSENHILEDVNKCVIALQEKDVDGLDRTAGAIRGRAARVIHVVTSEMDNYEPGVYTEKVLEATKLLSNTVMPRFTEQVEAAVEALSSDPAQPMDENEFIDASRLVYDGIRDIRKAVLMIRTPEELDDSDFETEDFDVRSRTSVQTEDDQLIAGQSARAIMAQLPQEQKAKIAEQVASFQEEKSKLDAEVSKWDDSGNDIIVLAKQMCMIMMEMTDFTRGKGPLKNTSDVISAAKKIAEAGSRMDKLGRTIADHCPDSACKQDLLAYLQRIALYCHQLNICSKVKAEVQNLGGELVVSGVDSAMSLIQAAKNLMNAVVQTVKASYVASTKYQKSQGMASLNLPAVSWKMKAPEKKPLVKREKQDETQTKIKRASQKKHVNPVQALSEFKAMDSI
